The target of data set [1] is T1, REV-ERB ALPHA (NR1D1) (Homo sapiens, UniProt P20393 SEQ:1-614).
T1 sequence: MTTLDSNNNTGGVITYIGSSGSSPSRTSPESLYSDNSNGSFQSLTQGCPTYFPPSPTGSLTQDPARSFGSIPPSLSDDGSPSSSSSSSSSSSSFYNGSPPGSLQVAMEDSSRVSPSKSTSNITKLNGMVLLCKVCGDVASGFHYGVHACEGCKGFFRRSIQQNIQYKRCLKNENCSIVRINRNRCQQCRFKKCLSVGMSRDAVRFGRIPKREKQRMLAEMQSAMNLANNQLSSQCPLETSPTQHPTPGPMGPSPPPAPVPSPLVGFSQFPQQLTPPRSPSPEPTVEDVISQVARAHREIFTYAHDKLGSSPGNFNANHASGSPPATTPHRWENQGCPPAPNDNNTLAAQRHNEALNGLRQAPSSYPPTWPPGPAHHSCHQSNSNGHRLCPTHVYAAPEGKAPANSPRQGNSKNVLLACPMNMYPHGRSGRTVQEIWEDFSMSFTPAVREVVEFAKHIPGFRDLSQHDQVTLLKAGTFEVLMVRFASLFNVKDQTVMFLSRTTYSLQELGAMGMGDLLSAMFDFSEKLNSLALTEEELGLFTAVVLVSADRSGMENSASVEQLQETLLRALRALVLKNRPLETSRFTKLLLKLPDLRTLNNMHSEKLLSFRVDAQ
The data set can be described thus: EMSA; binds as monomer and homodimer. The settings on record: tags: expressed from pSG5-hRev-erb alpha, rabbit reticulocyte lysate; label: end-labeled. The method, then: (§1) The electrophoretic gel shift studies were carried out by using the indicated end-labeled oligonucleotides, in the presence of the murine PPAR GAMMA receptor, murine RXR ALPHA receptor, human REV-ERB ALPHA receptor produced by reticulocyte lysate, or non-programmed lysates (lysate). Binding competition experiments were performed by adding a 0, 10 or 100-fold excess of unlabeled Rev-DR2 oligonucleotide.
(§2) The pSG5-mPPAR-gamma, pSG5-mRXR-alpha and pSG5-hRev-erb alpha plasmids were transcribed in vitro with T7 polymerase and translated with the rabbit reticulocyte lysate system (Promega, Madison, Wis., USA). Gel shift experiments with REV-ERB ALPHA, PPAR GAMMA and/or RXR ALPHA proteins were carried out as previously described (Gervois, P. et al., Molecular Endocrinology 1999, 13(3): 400-409; Vu-Dac, N. et al., J. Biol. Chem. 1994, 269(49): 31012-31018). For the competition experiments, increasing quantities of the indicated unlabeled probe were added immediately before adding the labeled oligonucleotide. The complexes were resolved in 5% polyacrylamide gels using […] buffer (90 mM borate, 2.5 mM EDTA, pH 8.3) at room temperature. Gels were dried and exposed overnight at −70° C. on Rayon-X film (XOMAT-AR, Eastman Kodak, Rochester, N.Y., USA).
(§3) Lastly, binding of the PPAR GAMMA receptor to the Rev-DR2 site was studied. […]
For orientation: In EMSA bound probe runs differently from free probe, usually more slowly.

Data set [2] deals with T2, RXR ALPHA (Mus musculus, UniProt P28700 P28700:1-467).
T2 sequence: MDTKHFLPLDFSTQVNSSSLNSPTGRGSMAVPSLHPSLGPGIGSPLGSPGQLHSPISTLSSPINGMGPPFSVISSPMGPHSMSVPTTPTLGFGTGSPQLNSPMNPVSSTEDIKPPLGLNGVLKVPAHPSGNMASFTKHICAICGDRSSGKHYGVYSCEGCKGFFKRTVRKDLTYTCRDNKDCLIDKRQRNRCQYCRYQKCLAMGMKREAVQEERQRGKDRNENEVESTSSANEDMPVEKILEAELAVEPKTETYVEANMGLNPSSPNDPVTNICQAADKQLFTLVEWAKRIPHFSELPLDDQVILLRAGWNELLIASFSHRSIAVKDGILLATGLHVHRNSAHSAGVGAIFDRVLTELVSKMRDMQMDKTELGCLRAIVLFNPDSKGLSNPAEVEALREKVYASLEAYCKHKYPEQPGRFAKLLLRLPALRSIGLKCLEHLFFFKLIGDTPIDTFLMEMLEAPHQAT
The experiment in a line: EMSA; RXR alpha alone. The settings on record: tags: pSG5-mRXR-alpha, rabbit reticulocyte lysate; label: end-labeled. The method, then:
as §1, §2, §3

For data set [3], the target named is PPAR GAMMA / RXR ALPHA heterodimer (Mus musculus, UniProt P37238;P28700 P37238:1-505,P28700:1-467). The data set can be described thus: EMSA; competed by excess (10 or 100-fold tested) unlabeled Rev-DR2. Conditions: tags: pSG5-mPPAR-gamma and pSG5-mRXR-alpha, rabbit reticulocyte lysate; label: end-labeled. The method, then: Binding competition experiments were performed by adding a 0, 10 or 100-fold excess of unlabeled Rev-DR2 oligonucleotide.
as §2
Lastly, binding of the PPAR GAMMA receptor to the Rev-DR2 site was studied. A test to measure electrophoretic mobility (gel shift or electrophoretic mobility shift assay) was carried out using PPAR GAMMA and RXR ALPHA proteins synthesized in vitro. […]

Data set [4] concerns the target PPAR GAMMA (Mus musculus, UniProt P37238 P37238:1-505). The data set can be described thus: EMSA; PPAR gamma alone. Conditions: tags: pSG5-mPPAR-gamma, rabbit reticulocyte lysate; label: end-labeled. The method, then:
as §1, §2, §3

B1: Rev-DR2 (dsDNA)
DNA 1: AAAAGTGTGTCACTGGGGCA
DNA 2: TGCCCCAGTGACACACTTTT
Turning to B1, the binding result in data set [1] is “binds”; in data set [2] it was “no binding”; in data set [3], “binds”; in data set [4], “no binding”.

The values above are taken from US20050032064, “Method and device for identifying substances capable of modulating adipocyte differentiation” (published 2005).
